# In publication PMC11093223, “Cargo selective vesicle tethering: The structural basis for binding of specific cargo proteins by the Golgi tether component TBC1D23” (Science Advances, 2024):
# pKd: −log10 of the molar value.
# Experiments:
# [1] = molecular target: TBC1D23 C-terminal domain (mouse) (UniProt Q8K0F1); experiment: ITC; peptide (0.8 to 5 mM) titrated into 100 μM TBC1D23 C-terminal domain, 20°C, 100 mM NaCl, 100 mM tris pH 7.4, 1 mM TCEP, Nano ITC
# [2] = molecular target: Mouse TBC1D23 (559-684), C-terminal domain (mouse) (UniProt Q8K0F1); experiment: ITC; peptide (0.8 to 5 mM) titrated into 100 uM TBC1D23 C-terminal domain, 20 injections of 2.4 ul; 20°C; 100 mM NaCl, 100 mM tris pH 7.4, 1 mM TCEP; mean of three runs
# Sequence of Mouse TBC1D23 (559-684), C-terminal domain (mouse) (Q8K0F1 559-684): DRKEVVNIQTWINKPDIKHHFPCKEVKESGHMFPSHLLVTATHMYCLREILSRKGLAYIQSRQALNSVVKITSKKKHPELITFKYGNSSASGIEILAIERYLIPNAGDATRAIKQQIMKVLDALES
# Sequence of TBC1D23 C-terminal domain (mouse) (Q8K0F1 559-684): as above
Substance,pKd [1],stoichiometry N [1],pKd [2]
"CPD peptide (acidic TLY region, ITC)",4.97,1,–
FAM174C peptide (TLY-like motif),4.80,–,–
FAM174C peptide with the acidic TLY motif,–,–,4.80
KIAA0319 peptide (acidic TLY motif of the tail),4.46,–,–
KIAA0319 peptide with the acidic TLY motif,–,–,4.45
NPDC1 peptide (acidic TLY motif of the tail),5.52,–,–
NPDC1 peptide with the acidic TLY motif,–,–,5.54
